In patent US20180291110A1 (Hoffmann-La Roche, published 2018):
Positions count from the first letter of the chain named.

B1: 2/99 VH8/VL5 (antibody, V domains shown)
VH: QQLVETGGGLIQPGGSLRLSCAASGFSLSSYAMSWVRQAPGKGLEWIGYIWSGGSTDYASWAKGRFTISKTSTTLYLQMNSLRAEDTAVYYCARRYGTSYPDYGDANGFDPWGQGTLVTVSS
VL: DIQMTQSPSSLSASVGDRVTITCRASQSISSYLSWYQQKPGKAPKLLIYRASTLASGVPSRFSGSGSGTDFTLTISSLQPEDFATYYCQQSYSSSNVDNTFGGGTKVEIK
B2: 2/99 VH9/VL5 (antibody, V domains shown)
VH: QQLLESGGGLVQPGGSLRLSCAASGFTFSSYAMSWVRQAPGKGLEWVGYIWSGGSTDYADSVKGRFTISRDNSKNTLYLQMNSLRAEDTAVYYCAKRYGTSYPDYGDANGFDPWGQGTLVTVSS
VL: B1 VL
B3: 2/99 VH11/VL5 (antibody, V domains shown)
VH: B2 VH with T27S, F28L, K96R
VL: B1 VL
B4: 2/99 VH12/VL5 (antibody, V domains shown)
VH: QVQLQESGPGLVKPSETLSLTCTVSGFSLSSYAMSWIRQPPGKGLEWIGYIWSGGSTDYNPSLKSRVTISVDTSKNQFSLKLSSVTAADTAVYYCARRYGTSYPDYGDANGFDPWGQGTLVTVSS
VL: B1 VL
B5: 2/99 VH13/VL5 (antibody, V domains shown)
VH: B4 VH with F78V
VL: B1 VL
B6: 2/99 VH15/VL5 (antibody, V domains shown)
VH: QQLQESGPGLVKPSETLSLTCTVSGFSLSSYAMSWVRQPPGKGLEWIGYIWSGGSTDYNPSLKSRVTISVDTSKNQVSLKLSSVTAADTAVYYCARRYGTSYPDYGDANGFDPWGQGTLVTVSS
VL: B1 VL
B7: 2/99 VH16/VL5 (antibody, V domains shown)
VH: B6 VH with Q116P
VL: B1 VL
B8: 2/99 VH17/VL5 (antibody, V domains shown)
VH: B6 VH with V70K, Q116P
VL: B1 VL
B9: 2/99 VH18/VL5 (antibody, V domains shown)
VH: B4 VH with E16Q, P40H, N60A
VL: B1 VL
B10: 2/99 VH19/VL5 (antibody, V domains shown)
VH: B6 VH with Q2S, L3M, E15Q, V36I, P39H, N59A, V77F
VL: B1 VL
B11: 2/99 VH20/VL5 (antibody, V domains shown)
VH: B6 VH with Q2S, L3M, E15Q, V36I, P39H, N59A
VL: B1 VL
B12: 2/99 VH21/VL5 (antibody, V domains shown)
VH: B6 VH with Q2S, L3M, E15Q, V36I, P39H, N59A, P60S, S61W, L62A
VL: B1 VL
B13: 2/99 VH22/VL5 (antibody, V domains shown)
VH: B6 VH with Q2S, L3M, E15Q, P39H, N59A, P60S, S61W, L62A
VL: B1 VL
B14: 2/99 VH23-DANG/VL5 (antibody, V domains shown)
VH: QSMQESGPGLVKPSQTLSLTCTVSGFSLSSYAMSWIRQHPGKGLEWIGYIWSGGSTDYASWAKSRVTISKTSTTVSLKLSSVTAADTAVYYCARRYGTSYPDYGDANGFDPWGQGTLVTVSS
VL: B1 VL
B15: 2/99 VH1/VL6 (antibody, V domains shown)
VH: B2 VH with Q1V, L4V, S6T, V11I, T27S, F28L, K96R
VL: B1 VL with D1A, M4L
B16: 2/99 VH2/VL6 (antibody, V domains shown)
VH: EVQLVETGGGLIQPGGSLRLSCAASGFSLSSYAMSWVRQAPGKGLEWVGYIWSGGSTDYADSVKGRFTISRDNSKNTLYLQMNSLRAEDTAVYYCARRYGTSYPDYGDANGFDPWGQGTLVTVSS
VL: B1 VL with D1A, M4L
B17: 2/99 VH5/VL6 (antibody, V domains shown)
VH: B2 VH with Q2S, L3M, L4E, S6T, V11I, T27S, F28L, K96R, Q116P
VL: B1 VL with D1A, M4L
B18: 2/99 VH6/VL6 (antibody, V domains shown)
VH: B2 VH with L4V, S6T, V11I, T27S, F28L, V47I, K96R
VL: B1 VL with D1A, M4L
B19: 2/99 VH8/VL6 (antibody, V domains shown)
VH: B1 VH
VL: B1 VL with D1A, M4L
B20: 2/99 VH9/VL6 (antibody, V domains shown)
VH: B2 VH
VL: B1 VL with D1A, M4L
B21: 2/99 VH11/VL6 (antibody, V domains shown)
VH: B2 VH with T27S, F28L, K96R
VL: B1 VL with D1A, M4L
B22: 2/99 VH12/VL6 (antibody, V domains shown)
VH: B4 VH
VL: B1 VL with D1A, M4L
B23: 2/99 VH13/VL6 (antibody, V domains shown)
VH: B4 VH with F78V
VL: B1 VL with D1A, M4L
B24: 2/99 VH15/VL6 (antibody, V domains shown)
VH: B6 VH
VL: B1 VL with D1A, M4L
B25: 2/99 VH16/VL6 (antibody, V domains shown)
VH: B6 VH with Q116P
VL: B1 VL with D1A, M4L
B26: 2/99 VH17/VL6 (antibody, V domains shown)
VH: B6 VH with V70K, Q116P
VL: B1 VL with D1A, M4L
B27: 2/99 VH18/VL6 (antibody, V domains shown)
VH: B4 VH with E16Q, P40H, N60A
VL: B1 VL with D1A, M4L
B28: 2/99 VH19/VL6 (antibody, V domains shown)
VH: B6 VH with Q2S, L3M, E15Q, V36I, P39H, N59A, V77F
VL: B1 VL with D1A, M4L
B29: 2/99 VH20/VL6 (antibody, V domains shown)
VH: B6 VH with Q2S, L3M, E15Q, V36I, P39H, N59A
VL: B1 VL with D1A, M4L
B30: 2/99 VH21/VL6 (antibody, V domains shown)
VH: B6 VH with Q2S, L3M, E15Q, V36I, P39H, N59A, P60S, S61W, L62A
VL: B1 VL with D1A, M4L
B31: 2/99 VH22/VL6 (antibody, V domains shown)
VH: B6 VH with Q2S, L3M, E15Q, P39H, N59A, P60S, S61W, L62A
VL: B1 VL with D1A, M4L
B32: 2/99 VH1/VL7 (antibody, V domains shown)
VH: B2 VH with Q1V, L4V, S6T, V11I, T27S, F28L, K96R
VL: B1 VL with D1A, M4L, S34A
B33: 2/99 VH2/VL7 (antibody, V domains shown)
VH: B16 VH
VL: B1 VL with D1A, M4L, S34A
B34: 2/99 VH5/VL7 (antibody, V domains shown)
VH: B2 VH with Q2S, L3M, L4E, S6T, V11I, T27S, F28L, K96R, Q116P
VL: B1 VL with D1A, M4L, S34A
B35: 2/99 VH6/VL7 (antibody, V domains shown)
VH: B2 VH with L4V, S6T, V11I, T27S, F28L, V47I, K96R
VL: B1 VL with D1A, M4L, S34A
B36: 2/99 VH7/VL7 (antibody, V domains shown)
VH: B2 VH with L4V, S6T, V11I, T27S, F28L, V47I, D60S, S61W, V62A, K96R
VL: B1 VL with D1A, M4L, S34A

Biological target: T1, human transferrin receptor (recombinant, for surface plasmon resonance) (human, UniProt P02786 89-760)
T1 construct: also called huTfR; human transferrin receptor-biotinylated
Test: SPR 25C

T1 sequence (P02786 89-760 limits assumed): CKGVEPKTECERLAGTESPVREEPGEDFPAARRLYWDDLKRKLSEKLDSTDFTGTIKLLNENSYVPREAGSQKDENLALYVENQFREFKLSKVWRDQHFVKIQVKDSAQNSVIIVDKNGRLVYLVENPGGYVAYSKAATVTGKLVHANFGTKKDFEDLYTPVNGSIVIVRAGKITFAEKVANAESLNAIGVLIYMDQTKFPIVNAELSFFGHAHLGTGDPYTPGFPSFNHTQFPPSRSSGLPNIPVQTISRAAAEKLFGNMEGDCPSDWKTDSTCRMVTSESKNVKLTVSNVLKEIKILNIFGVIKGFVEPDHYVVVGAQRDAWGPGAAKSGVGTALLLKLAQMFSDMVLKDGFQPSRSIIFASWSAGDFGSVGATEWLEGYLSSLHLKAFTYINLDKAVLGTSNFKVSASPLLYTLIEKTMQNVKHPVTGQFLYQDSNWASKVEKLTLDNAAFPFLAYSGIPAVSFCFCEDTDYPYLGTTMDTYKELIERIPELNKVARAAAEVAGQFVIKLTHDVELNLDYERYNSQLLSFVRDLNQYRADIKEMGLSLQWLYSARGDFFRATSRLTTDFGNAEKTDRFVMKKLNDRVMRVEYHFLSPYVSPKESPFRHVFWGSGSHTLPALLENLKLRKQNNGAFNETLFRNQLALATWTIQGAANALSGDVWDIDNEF

Binder | koff [s⁻¹]
B1 | 0.00107
B2 | 0.0035
B3 | 0.00456
B4 | 0.00582
B5 | 0.00218
B6 | 0.00214
B7 | 0.00223
B8 | 0.00123
B9 | 0.00349
B10 | 0.001
B11 | 0.00352
B12 | 0.00137
B13 | 0.00141
B14 | 0.00088
B15 | 0.00538
B16 | 0.00555
B17 | 0.00464
B18 | 0.00306

Binder | koff [s⁻¹]
B19 | 0.0014
B20 | 0.00683
B21 | 0.00671
B22 | 0.00705
B23 | 0.00365
B24 | 0.0035
B25 | 0.00339
B26 | 0.00171
B27 | 0.00674
B28 | 0.001
B29 | 0.00606
B30 | 0.00207
B31 | 0.00214
B32 | 0.00733
B33 | 0.0075
B34 | 0.00697
B35 | 0.00563
B36 | 0.00366
